Experiments:
PaF4′OMT = target: T1, PaF4′OMT (Plagiochasma appendiculatum, UniProt A0A1X9Y2Y6); assay: HPLC product quantification, Michaelis-Menten fit; assay type: biochemical; details: substrate inhibition by luteolin; SAM as methyl donor; pH 7.5, 37 °C
T1 construct: pET32a fusion with N-terminal His6 tag kept (about 60 kDa on SDS-PAGE); E. coli BL21(DE3)
Description: HPLC product quantification, Michaelis-Menten fit on PaF4′OMT

[1] = substrate: O=c1cc(-c2ccc(O)c(O)c2)oc2cc(O)cc(O)c12; assay: HPLC product quantification, Michaelis-Menten fit; assay type: biochemical, Plagiochasma appendiculatum; details: SAM as methyl donor, no Mg2+ needed, pH 7.5, 37 °C
purified protein = substrate: O=c1cc(-c2ccc(O)cc2)oc2cc(O)cc(O)c12; assay: purified protein; details: SAM as methyl donor, no Mg2+ needed, pH 7.5, 37 °C

| Molecule | Ki (PaF4′OMT) [µM] | Km [1] [µM] | Vmax [1] [µmol/min/mg] | kcat [1] [s⁻¹] | Km (purified protein) [µM] | Vmax (purified protein) [µmol/min/mg] | kcat (purified protein) [s⁻¹] |
| --- | --- | --- | --- | --- | --- | --- | --- |
| O=c1cc(-c2ccc(O)c(O)c2)oc2cc(O)cc(O)c12 [luteolin] | 292.8 ± 69.03 | – | – | – | – | – | – |
| PaF4′OMT (Plagiochasma appendiculatum) (protein, pET32a fusion with N-terminal His6 tag kept (about 60 kDa on SDS-PAGE); E. coli BL21(DE3)) MAVSTNGKTSEGVSDVSRTKNITNGNGMDMSVSANVASIGSVSATPLSPEDKRDHVVAINFLLGWVQTWALKAVVTMRIPDIISKAPMDALTAREIISQIQCKNPSNAVPLLERLMRFMVCKGFFSESVNGENEIAYELNGVSKMYVTDHEMSVVEWVNVAFHRSGIPALTRMHEAITEDVCPWDQAHGMPIYAHNPKFPELGDFFHKAMIVHSNFLTKILAEEYEGFKDFKVLVDVGGSLGNNLALILRFHPHLRGINFDMPSVIAGAPSFPGVEHVGGNFYESVPSGDAIMLMAILHNNSDENCVKILRSVHAALPEDGKLIVAEYIMTNEADHNGERIRLLDMLMLVQFRGGEERTFEHHKTLYEAAGFRHYKLIKTSGPMDIIEVRK | – | 52.1 ± 10.54 | 0.111 | 0.08 ± 0.009 | 31.0 ± 5.90 | 0.163 | 0.117 |

— paper PMC6154639 (Molecules : A Journal of Synthetic Chemistry and Natural …, 2017)
